# Experimental data reported in US20230047413A1.
# Columns and labels:
# [1] = target: tau seeds from GFP-tauP301L-overexpressing HEK cells (UniProt P10636); test: cell-based or functional assay
# [2] = target: tau seeds from cryopreserved human AD brain tissue (human) (UniProt P10636); test: cell-based or functional assay
# [3] = target: tau seeds from spinal cords of P301S transgenic animals (human) (UniProt P10636); test: cell-based or functional assay
# [4] = target: PHF-tau (paired helical filament tau isolated from Alzheimer's disease brain) (human) (UniProt P10636); test: SPR ProteOn, PHF-tau
# [5] = target: recombinant human wild-type tau (Example 1) (human) (UniProt P10636); test: SPR Biacore, recombinant tau
# [6] = target: PHF-tau (paired helical filament tau isolated from Alzheimer's disease brain) (human) (UniProt P10636); test: SPR ProteOn, PHF-tau capture-coupled via HT7, bivalent model
# PHF-tau (paired helical filament tau isolated from Alzheimer's disease brain) (human), sequence (P10636 other isoform, or with tags, fused parts or gaps limits assumed): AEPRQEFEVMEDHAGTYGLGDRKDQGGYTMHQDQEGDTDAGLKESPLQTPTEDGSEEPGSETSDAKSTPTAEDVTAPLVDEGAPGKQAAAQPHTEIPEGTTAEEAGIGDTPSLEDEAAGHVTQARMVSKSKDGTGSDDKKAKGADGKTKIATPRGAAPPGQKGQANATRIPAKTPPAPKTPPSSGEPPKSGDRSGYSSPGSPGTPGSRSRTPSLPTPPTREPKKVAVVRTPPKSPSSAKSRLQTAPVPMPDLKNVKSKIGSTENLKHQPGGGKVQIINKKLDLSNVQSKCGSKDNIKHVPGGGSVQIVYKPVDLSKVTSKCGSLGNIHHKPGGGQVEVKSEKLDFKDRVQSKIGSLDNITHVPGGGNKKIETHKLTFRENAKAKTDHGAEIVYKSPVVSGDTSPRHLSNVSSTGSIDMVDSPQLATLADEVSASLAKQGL
# tau seeds from spinal cords of P301S transgenic animals (human), sequence (P10636 other isoform, or with tags, fused parts or gaps P301S P301S): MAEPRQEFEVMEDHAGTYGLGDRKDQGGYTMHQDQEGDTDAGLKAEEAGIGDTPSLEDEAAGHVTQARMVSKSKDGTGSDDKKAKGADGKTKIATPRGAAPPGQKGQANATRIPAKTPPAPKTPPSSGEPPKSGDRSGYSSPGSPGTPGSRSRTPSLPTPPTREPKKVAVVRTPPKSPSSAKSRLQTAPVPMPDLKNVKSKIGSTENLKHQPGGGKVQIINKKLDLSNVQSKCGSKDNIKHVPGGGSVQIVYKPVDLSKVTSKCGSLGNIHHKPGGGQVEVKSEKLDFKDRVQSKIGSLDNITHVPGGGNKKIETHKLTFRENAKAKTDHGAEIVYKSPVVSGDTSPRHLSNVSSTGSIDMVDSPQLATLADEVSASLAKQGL
# recombinant human wild-type tau (Example 1) (human), sequence (P10636 other isoform, or with tags, fused parts or gaps limits assumed): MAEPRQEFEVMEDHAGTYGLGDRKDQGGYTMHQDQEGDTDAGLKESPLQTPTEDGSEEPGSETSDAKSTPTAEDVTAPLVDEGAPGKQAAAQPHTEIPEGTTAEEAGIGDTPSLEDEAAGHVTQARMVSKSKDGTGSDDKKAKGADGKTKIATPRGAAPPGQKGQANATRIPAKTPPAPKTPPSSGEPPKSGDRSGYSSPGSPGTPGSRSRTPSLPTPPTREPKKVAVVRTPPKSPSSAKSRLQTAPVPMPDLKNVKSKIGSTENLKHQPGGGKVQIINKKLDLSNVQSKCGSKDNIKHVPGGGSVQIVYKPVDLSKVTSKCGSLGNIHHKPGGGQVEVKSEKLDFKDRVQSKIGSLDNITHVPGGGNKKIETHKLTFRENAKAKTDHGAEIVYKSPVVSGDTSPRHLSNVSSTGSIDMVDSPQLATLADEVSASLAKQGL
Substance,"inhibition of K18 aggregate induction, BRET/GFP-tauP301L co-incubation assay, 300 nM antibody (% of negative control) [1]","FRET/human AD brain homogenate immunodepletion assay, 300 nM antibody (% of negative control) [2]","FRET/P301S spinal cord immunodepletion assay, 300 nM antibody (% of negative control) [3]","inhibition of K18 aggregate induction, FRET/P301S spinal cord co-incubation assay, 300 nM antibody (% of negative control) [3]",Kd [4] [nM],koff [4] [s⁻¹],kon [4] [M⁻¹ s⁻¹],"inhibition of K18 aggregate induction, BRET/GFP-tauP301L co-incubation assay, 166.67 nM antibody (% of negative control) [1]","inhibition of K18 aggregate induction, FRET/P301S spinal cord co-incubation assay, 89.99 nM antibody (% of negative control) [3]",Kd [5] [nM],koff [5] [s⁻¹],kon [5] [M⁻¹ s⁻¹],Kd [6] [nM],koff [6] [s⁻¹],kon [6] [M⁻¹ s⁻¹]
AT8 mAb (hyb) (antibody),10.5,80.7,96.7,26.4,0.092,0.000211,2.3e+06,,,,,,,,
HT7 (antibody),,83,99.2,,0.131,9.26e-05,706000,65.4,73.5,3.05,0.0118,3.86e+06,0.193,0.00011,569000
AT8 Fab,,,,,25.8,0.023,889000,,,,,,,,
